Laboratory results reported in the supplement of paper PMC7877785.
± gives the uncertainty stated by the source.

Assay: self-splicing fitness, log relative to wild type (ln ratio); higher = more splicing; Tetrahymena group I intron in knt gene, E. coli kanamycin selection, DiMSum; sequences stand for … in CUCUCU…GGAGGGAAAAGUUAUCAGGCAUGCACCUGGUAGCUAGUCUUUAAACCAAUAGAUUGCAUCGGUUUAAAAGGCAAGACCGUCAAAUUGCGGGAAAGGGGUCAACAGCCGUUCAGUACCAAGUCUCAGGGGAAACUUUGAGAUGGCCUUGCAAAGGGUAUGGUAAUAAGCUGACGGACAUGGUCCUAACCACGCAGCCAAGUCCUAAGUCAACAGAUCUUCUGUUGAUAUGGAUGCAGUUCACAGACUAAAUGUCGGUCGGGGAAGAUGUAUUCUUCUCAUAAGAUAUAGUCGGACCUCUCCUUAAUGGGAGCUAGCGGAUGAAGUGAUGCAACACUGGAGCCGCUGGGAACUAAUUUGUAUGCGAAAGUAUAUUGAUUAGUUUUGGAGUACUCGUGGUCG
Outline: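 DiMSum derived fitness as the error-weighted combination of fold changes across replicates, kanamycin versus no kanamycin, normalised to wild type. E. coli BL21(DE3) held the library, which randomised all eight P1ex-region intron nucleotides within the knt kanamycin-resistance gene on pET-22b(+). Six replicate transformations grew overnight at 37°C or 30°C on LB agar with or without 25 μg/mL kanamycin, also containing 100 μg/mL carbenicillin, 50 μM IPTG and 0.2% rhamnose, and pooled colonies were amplicon-sequenced on an Illumina HiSeq 2500.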

Sequence	self-splicing fitness (ln) (30 °C)	self-splicing fitness (ln) (37 °C)
GAGCAGCAAUAUUACGAGCC	-0.545 ± 0.19	-0.285 ± 0.21
GAGCAGCAAUAUUACGAGGU	-4.1 ± 0.33	-1.65 ± 0.15
GAGCAGCAAUAUUACGCAAC	-2.85 ± 0.28	-2.22 ± 0.45
GAGCAGCAAUAUUACGCAUU	-3.04 ± 0.2	-2.23 ± 0.24
GAGCAGCAAUAUUACGCCAU	-2.67 ± 0.46	-3.33 ± 0.43
GAGCAGCAAUAUUACGCCCA	-0.299 ± 0.18	0.255 ± 0.26
GAGCAGCAAUAUUACGCGGU	-3.17 ± 0.27	-0.69 ± 0.22
GAGCAGCAAUAUUACGCGUA	-0.655 ± 0.18	-0.959 ± 0.14
GAGCAGCAAUAUUACGCUCC	-2.25 ± 0.35	-0.34 ± 0.38
GAGCAGCAAUAUUACGGAAU	-3.37 ± 0.22	-2.08 ± 0.2
GAGCAGCAAUAUUACGGAGA	-4.02 ± 0.25	-2.16 ± 0.16
GAGCAGCAAUAUUACGGCAC	-0.575 ± 0.1	-0.126 ± 0.17
GAGCAGCAAUAUUACGGCGU	-0.163 ± 0.14	0.683 ± 0.18
GAGCAGCAAUAUUACGGUCA	-0.942 ± 0.11	-0.118 ± 0.11
GAGCAGCAAUAUUACGGUGC	-2.98 ± 0.18	-2.61 ± 0.18
GAGCAGCAAUAUUACGUAUC	-2.06 ± 0.087	-1.44 ± 0.091
GAGCAGCAAUAUUACGUGCU	-3.11 ± 0.2	-2.2 ± 0.23
GAGCAGCAAUAUUACGUGGG	-3.13 ± 0.24	-3.03 ± 0.27
GAGCAGCAAUAUUACGUGUG	-3.28 ± 0.12	-0.789 ± 0.11
GAGGAGCAAUAUUACGACAA	-2.14 ± 0.24	-1.1 ± 0.27
GAGGAGCAAUAUUACGAGCU	–	-1.77 ± 0.47
GAGGAGCAAUAUUACGAUCA	-2.5 ± 0.22	-1.59 ± 0.19
GAGGAGCAAUAUUACGCACA	-1.61 ± 0.32	-0.287 ± 0.23
GAGGAGCAAUAUUACGCGUG	-1.55 ± 0.19	-0.66 ± 0.23
GAGGAGCAAUAUUACGCUAA	-1.86 ± 0.32	–

Sequence	self-splicing fitness (ln) (30 °C)	self-splicing fitness (ln) (37 °C)
GAGGAGCAAUAUUACGCUAU	-2.8 ± 0.27	-2.05 ± 0.45
GAGGAGCAAUAUUACGCUGC	-4.13 ± 0.38	–
GAGGAGCAAUAUUACGGAAC	-3.68 ± 0.44	-0.46 ± 0.28
GAGGAGCAAUAUUACGGCAA	-2.41 ± 0.21	-0.766 ± 0.26
GAGGAGCAAUAUUACGGGCA	-1.33 ± 0.32	-3.44 ± 0.47
GAGGAGCAAUAUUACGGGUA	–	-2.26 ± 0.36
GAGGAGCAAUAUUACGGGUU	-1.74 ± 0.14	-2.23 ± 0.22
GAGGAGCAAUAUUACGGUUA	-2.45 ± 0.28	-2.2 ± 0.3
GAGGAGCAAUAUUACGUAGC	-0.914 ± 0.2	-1.02 ± 0.37
GAGGAGCAAUAUUACGUCAG	-3.5 ± 0.37	–
GAGGAGCAAUAUUACGUGGG	-3.08 ± 0.36	-1.91 ± 0.4
GAGGAGCAAUAUUACGUUAU	-3.32 ± 0.23	-2.96 ± 0.32
GAGGAGCAAUAUUACGUUUC	-2.74 ± 0.42	–
GAGGAGCAAUAUUACGUUUG	-3.33 ± 0.16	-1.92 ± 0.13
GAGUAGCAAUAUUACGAAUA	-2 ± 0.14	-1.76 ± 0.14
GAGUAGCAAUAUUACGAGCU	-1.64 ± 0.073	-0.0858 ± 0.11
GAGUAGCAAUAUUACGAGGG	-3.5 ± 0.44	-1.94 ± 0.28
GAGUAGCAAUAUUACGAGUC	-3.59 ± 0.34	-1.48 ± 0.27
GAGUAGCAAUAUUACGCACG	-1.77 ± 0.21	–
GAGUAGCAAUAUUACGCACU	-3.18 ± 0.19	-1.34 ± 0.36
GAGUAGCAAUAUUACGCAGU	-3.14 ± 0.39	-2.03 ± 0.22
GAGUAGCAAUAUUACGCCCG	-0.892 ± 0.21	-1.03 ± 0.31
GAGUAGCAAUAUUACGCCUC	-2.22 ± 0.24	-3.01 ± 0.47
GAGUAGCAAUAUUACGCGGU	-3.68 ± 0.31	-2.78 ± 0.48
GAGUAGCAAUAUUACGGAUU	-1.41 ± 0.073	-0.46 ± 0.095

Sequence	self-splicing fitness (ln) (30 °C)	self-splicing fitness (ln) (37 °C)
GAGUAGCAAUAUUACGGCGU	-0.448 ± 0.17	0.221 ± 0.18
GAGUAGCAAUAUUACGUAAG	-2.82 ± 0.14	0.0773 ± 0.14
GAGUAGCAAUAUUACGUAGU	-4.34 ± 0.31	-2.68 ± 0.2
GAGUAGCAAUAUUACGUAUA	-2.4 ± 0.29	-1.52 ± 0.22
GAGUAGCAAUAUUACGUAUC	-3.05 ± 0.14	-0.698 ± 0.11
GAGUAGCAAUAUUACGUCAC	-3.28 ± 0.24	–
GAGUAGCAAUAUUACGUCGC	-1.31 ± 0.22	-1.42 ± 0.26
GAGUAGCAAUAUUACGUUAC	-4.57 ± 0.33	-1.57 ± 0.17
GAGUAGCAAUAUUACGUUGG	-3.06 ± 0.25	-3.3 ± 0.46
GAUAAGCAAUAUUACGACAG	-3.46 ± 0.24	-1.89 ± 0.23
GAUAAGCAAUAUUACGACGA	-0.165 ± 0.12	-0.626 ± 0.11
GAUAAGCAAUAUUACGAGGC	–	-2.76 ± 0.44
GAUAAGCAAUAUUACGAGUC	-3.11 ± 0.27	-1.32 ± 0.17
GAUAAGCAAUAUUACGAGUU	-2.26 ± 0.14	-1.27 ± 0.16
GAUAAGCAAUAUUACGAUGA	-0.666 ± 0.097	-0.376 ± 0.11
GAUAAGCAAUAUUACGCAAG	-2.51 ± 0.25	-1.34 ± 0.21
GAUAAGCAAUAUUACGCUAC	-2.85 ± 0.4	-2.31 ± 0.34
GAUAAGCAAUAUUACGGAUG	-2.76 ± 0.11	-1 ± 0.11
GAUAAGCAAUAUUACGGGAG	-4.18 ± 0.25	-2.34 ± 0.15
GAUAAGCAAUAUUACGGGCG	-1.41 ± 0.11	-0.837 ± 0.13
GAUAAGCAAUAUUACGGUAA	-2.64 ± 0.22	-1.46 ± 0.15
GAUAAGCAAUAUUACGGUCG	-0.842 ± 0.1	0.117 ± 0.13
GAUAAGCAAUAUUACGUAUC	-3.9 ± 0.18	-2.67 ± 0.27
GAUAAGCAAUAUUACGUCCG	-4.76 ± 0.36	-2.1 ± 0.22
GAUAAGCAAUAUUACGUGCU	-2.32 ± 0.18	-1.71 ± 0.19

Sequence	self-splicing fitness (ln) (30 °C)	self-splicing fitness (ln) (37 °C)
GAUAAGCAAUAUUACGUUAC	-2.69 ± 0.2	-2.09 ± 0.35
GAUCAGCAAUAUUACGAACU	-0.585 ± 0.056	0.06 ± 0.073
GAUCAGCAAUAUUACGAAUG	-1.15 ± 0.075	-0.0569 ± 0.11
GAUCAGCAAUAUUACGACAU	-0.0993 ± 0.012	0.102 ± 0.032
GAUCAGCAAUAUUACGACCU	-0.708 ± 0.089	-0.346 ± 0.1
GAUCAGCAAUAUUACGAGGG	-1.99 ± 0.11	-2.17 ± 0.18
GAUCAGCAAUAUUACGAGUG	-1.2 ± 0.06	-1.21 ± 0.079
GAUCAGCAAUAUUACGAUGU	-0.363 ± 0.062	0.0452 ± 0.077
GAUCAGCAAUAUUACGCAGA	-2.13 ± 0.14	-0.891 ± 0.16
GAUCAGCAAUAUUACGCAGU	-1.74 ± 0.083	-0.88 ± 0.12
GAUCAGCAAUAUUACGCCAG	-3.32 ± 0.3	-1.93 ± 0.31
GAUCAGCAAUAUUACGCCCA	-0.563 ± 0.2	-0.558 ± 0.28
GAUCAGCAAUAUUACGCCGC	-2.29 ± 0.44	-1.19 ± 0.28
GAUCAGCAAUAUUACGCGCG	-0.222 ± 0.14	0.0103 ± 0.15
GAUCAGCAAUAUUACGCUGG	-3.48 ± 0.21	-3.18 ± 0.27
GAUCAGCAAUAUUACGGAAG	-2.38 ± 0.1	-0.761 ± 0.091
GAUCAGCAAUAUUACGGGUA	-0.0547 ± 0.089	-0.665 ± 0.086
GAUCAGCAAUAUUACGGUAA	-0.559 ± 0.075	0.194 ± 0.07
GAUCAGCAAUAUUACGGUAU	-0.247 ± 0.068	-0.46 ± 0.078
GAUCAGCAAUAUUACGGUUC	-2.83 ± 0.23	-0.31 ± 0.14
GAUCAGCAAUAUUACGGUUU	-0.544 ± 0.074	-0.154 ± 0.098
GAUCAGCAAUAUUACGUACA	-0.607 ± 0.12	0.177 ± 0.15
GAUCAGCAAUAUUACGUAGA	-0.569 ± 0.08	-0.158 ± 0.14
